Changes are numbered by the printed parent chain. Each block holds one binder with its values, some of them ahead of it.
How the values were obtained:
[1] = biological target: T1, human integrin β8 swap construct V R I N S (SEQ ID NO:124) (human, UniProt P26012 43-769); experiment: flow cytometry, cell surface staining of β8 amino acid swap constructs
T1 sequence: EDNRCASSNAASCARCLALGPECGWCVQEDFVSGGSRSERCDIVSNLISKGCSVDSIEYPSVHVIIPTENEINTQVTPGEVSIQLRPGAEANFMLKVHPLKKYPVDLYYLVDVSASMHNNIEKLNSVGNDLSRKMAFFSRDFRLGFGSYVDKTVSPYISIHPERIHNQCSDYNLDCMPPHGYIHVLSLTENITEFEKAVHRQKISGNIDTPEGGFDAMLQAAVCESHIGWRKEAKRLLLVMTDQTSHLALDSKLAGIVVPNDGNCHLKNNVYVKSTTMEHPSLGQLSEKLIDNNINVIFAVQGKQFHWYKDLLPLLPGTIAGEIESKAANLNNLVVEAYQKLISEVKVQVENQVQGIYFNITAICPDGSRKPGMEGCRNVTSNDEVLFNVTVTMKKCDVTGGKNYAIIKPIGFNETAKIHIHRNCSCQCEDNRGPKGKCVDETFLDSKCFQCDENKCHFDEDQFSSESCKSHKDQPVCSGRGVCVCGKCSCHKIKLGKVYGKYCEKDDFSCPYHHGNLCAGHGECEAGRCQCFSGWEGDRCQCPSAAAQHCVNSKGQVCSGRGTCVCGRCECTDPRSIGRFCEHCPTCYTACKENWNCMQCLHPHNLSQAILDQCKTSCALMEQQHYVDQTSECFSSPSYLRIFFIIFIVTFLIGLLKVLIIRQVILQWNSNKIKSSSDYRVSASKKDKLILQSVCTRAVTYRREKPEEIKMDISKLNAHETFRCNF

[2] = biological target: T2, human integrin β8 swap construct I G I N P (SEQ ID NO:125) (human, UniProt P26012 43-769); experiment: as above
T2 sequence: T1 sequence with V32I, R37G, S53P

[3] = biological target: T3, human integrin β8 swap construct I G I N S (SEQ ID NO:126) (human, UniProt P26012 43-769); experiment: as above
T3 sequence: T1 sequence with V32I, R37G

mouse integrin β8 [4] = biological target: T4, mouse integrin β8 (mouse, UniProt Q0VBD0 22-767); experiment: as above
T4 construct: whole, on cells; also called mouse β8; itgb8
T4 sequence (looked up): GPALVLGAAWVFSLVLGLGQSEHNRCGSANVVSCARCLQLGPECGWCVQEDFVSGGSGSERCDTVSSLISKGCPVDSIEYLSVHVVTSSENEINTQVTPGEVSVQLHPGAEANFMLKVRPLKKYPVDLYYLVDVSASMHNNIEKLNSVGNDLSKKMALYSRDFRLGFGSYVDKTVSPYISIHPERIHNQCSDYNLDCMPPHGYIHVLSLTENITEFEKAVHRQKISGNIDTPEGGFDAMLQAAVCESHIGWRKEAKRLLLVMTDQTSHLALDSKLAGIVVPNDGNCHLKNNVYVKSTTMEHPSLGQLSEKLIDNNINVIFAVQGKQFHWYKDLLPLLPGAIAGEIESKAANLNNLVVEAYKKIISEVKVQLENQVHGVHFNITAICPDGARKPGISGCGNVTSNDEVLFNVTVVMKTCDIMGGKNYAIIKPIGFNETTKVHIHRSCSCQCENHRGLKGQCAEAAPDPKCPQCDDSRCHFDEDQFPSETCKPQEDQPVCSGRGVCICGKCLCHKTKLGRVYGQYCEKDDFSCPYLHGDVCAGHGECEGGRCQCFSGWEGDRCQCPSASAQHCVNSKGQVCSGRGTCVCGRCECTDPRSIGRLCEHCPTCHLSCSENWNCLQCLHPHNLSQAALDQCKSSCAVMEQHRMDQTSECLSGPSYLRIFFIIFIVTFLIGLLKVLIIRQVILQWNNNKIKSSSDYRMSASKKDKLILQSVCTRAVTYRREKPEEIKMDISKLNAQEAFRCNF

[5] = biological target: T5, human integrin αβ8 (αvβ8) expressed on cells (human, UniProt P06756 31-1048); experiment: as above
T5 construct: whole, on cells; β8 transfected into or endogenous on cells, unfixed or formalin fixed; also called human integrin β8; ITGB8

mouse integrin β8 [6] = biological target: T4, mouse integrin β8; experiment: cell surface staining, flow cytometry

T5 sequence (P06756 31-1048): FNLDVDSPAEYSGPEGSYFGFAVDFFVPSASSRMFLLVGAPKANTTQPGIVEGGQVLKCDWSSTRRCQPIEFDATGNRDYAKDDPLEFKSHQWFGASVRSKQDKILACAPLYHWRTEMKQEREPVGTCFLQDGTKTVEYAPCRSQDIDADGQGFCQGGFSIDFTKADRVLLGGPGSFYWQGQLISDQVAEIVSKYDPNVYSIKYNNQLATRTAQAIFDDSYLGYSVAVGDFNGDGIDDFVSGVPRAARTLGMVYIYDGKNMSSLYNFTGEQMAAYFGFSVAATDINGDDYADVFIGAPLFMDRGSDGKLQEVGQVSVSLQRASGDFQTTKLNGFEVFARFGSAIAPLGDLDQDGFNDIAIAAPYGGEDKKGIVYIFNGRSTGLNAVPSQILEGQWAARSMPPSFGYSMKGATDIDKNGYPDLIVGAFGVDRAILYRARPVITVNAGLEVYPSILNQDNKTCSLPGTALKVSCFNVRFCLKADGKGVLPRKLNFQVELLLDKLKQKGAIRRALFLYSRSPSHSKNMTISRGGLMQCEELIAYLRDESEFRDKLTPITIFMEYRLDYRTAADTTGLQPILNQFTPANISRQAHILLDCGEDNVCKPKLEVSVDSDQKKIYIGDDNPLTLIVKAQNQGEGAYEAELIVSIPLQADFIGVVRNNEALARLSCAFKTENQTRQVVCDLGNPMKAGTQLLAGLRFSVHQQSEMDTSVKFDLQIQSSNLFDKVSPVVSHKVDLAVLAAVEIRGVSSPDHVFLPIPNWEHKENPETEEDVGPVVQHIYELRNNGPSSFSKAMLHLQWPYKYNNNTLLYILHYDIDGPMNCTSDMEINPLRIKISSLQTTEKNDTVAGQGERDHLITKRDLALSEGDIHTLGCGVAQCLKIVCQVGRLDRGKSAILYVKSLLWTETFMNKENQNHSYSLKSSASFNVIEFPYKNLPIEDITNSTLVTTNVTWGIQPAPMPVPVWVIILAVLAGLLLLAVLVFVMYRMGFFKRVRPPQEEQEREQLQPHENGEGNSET

% positive [1]: 92% | % positive [2]: 0% | % positive [3]: 101% | % positive (mouse integrin β8 [4]): 3% | % positive [5]: 100% | binding result (mouse integrin β8 [6]): no binding
B1: 4F1 antibody (antibody, V domains shown)
VH: QVQLQQSGAELVRPGTSVKVSCKASGYAFTNYLIEWVKQRPGQGLEWIGVINPGTGGTNYNKKFKVKATLTADKSSSTAYMQLGGLTFDDSAVYFCAREGNARTYYYAMDYWGQGTSVTVSS
VL: DIEMTQTPASLSASVGETVTITCRASENIYSYLVWYQQKQGKSPQVLVYNAKTLAEGVPSRFSGSGSGTQFSLKINSLQPEDFGSYYCQHHNGTPYTFGGGTKLEIKR
notes: Hybridoma antibody; also called hybridoma clone 4F1

% positive [1]: 102% | % positive [2]: 1% | % positive [3]: 104% | % positive (mouse integrin β8 [4]): 6% | % positive [5]: 100% | binding result (mouse integrin β8 [6]): no binding
B2: 6B9 antibody (antibody, V domains shown)
VH: QVQLQQSGAELVRPGTSVKVSCKASGYAFTDYLIEWVKQRPGQGLEWIGVINPETGGTNYNAKFKGKATLTADKSSSSAYMQLSSLTSGDSAVYFCAREAGNYIYAMDYWGQGTSVTVSS
VL: B1 VL with E3Q, T7S, E27V, V46L, Y49H, N92H
notes: Hybridoma antibody; also called hybridoma clone 6B9
